In the Human Domainome abundance scans (Beltran et al. 2025) one finds abundance fitness data, which are given here for 167 variants.

B1: Chromodomain-helicase-DNA-binding protein 3, residues 374 to 426; numbered along this chain, Q12873 (parent)
chain: YETDHQDYCEVCQQGGEIILCDTCPRAYHLVCLDPELDRAPEGKWSCPHCEKE
B2: POU domain, class 3, transcription factor 4, residues 280 to 335; numbered along this chain, P49335 (parent)
chain: KKRTSIEVSVKGVLETHFLKCPKPAAQEISSLADSLQLEKEVVRVWFCNRRQKEKR

± gives the uncertainty stated by the source.

One data set covers variants of B1. Put plainly: abundance fitness (aPCA) (normalised: wild type 0, dead -1); higher = more abundant; growth selection in yeast, the domain comes from the species named. To be noted: Homo sapiens.
For H5C, the abundance fitness was found to be 0.222 ± 0.24.

Turning to H5F, the abundance fitness was -0.171 ± 0.29.

Regarding H5T, the abundance fitness is 0.186 ± 0.11.

For the variant H5A, the abundance fitness is 0.329 ± 0.1.

As for H5D, the abundance fitness is -1.03 ± 0.24.

For H5W, the abundance fitness is -0.197 ± 0.12.

As to H5V, the abundance fitness turned out to be 0.142 ± 0.092.

Take H5S: the abundance fitness is 0.302 ± 0.1.

With H5G, the abundance fitness amounted to 0.366 ± 0.11.

Consider H5Q, for which the abundance fitness came to 0.13 ± 0.11.

H5R: the abundance fitness turned out to be 0.118 ± 0.093.

For H5L, the abundance fitness came out at 0.161 ± 0.087.

Turning to H5E, the abundance fitness is -0.137 ± 0.14.

Turning to H5N, the abundance fitness came out at 0.229 ± 0.14.

H5P: the abundance fitness was -0.071 ± 0.12.

For the variant Q6Y, the abundance fitness was -0.267 ± 0.14.

Q6R: the abundance fitness was -0.139 ± 0.14.

On to Q6H, for which the abundance fitness is -0.014 ± 0.15.

Take Q6A: the abundance fitness is -0.209 ± 0.27.

Regarding Q6P, the abundance fitness is -0.353 ± 0.16.

For Q6C, the abundance fitness was -0.499 ± 0.17.

Q6F: the abundance fitness was -0.579 ± 0.18.

For the variant Q6S, the abundance fitness is -0.439 ± 0.12.

Regarding Q6W, the abundance fitness was -0.378 ± 0.17.

In the case of Q6E, the abundance fitness is -0.227 ± 0.22.

For Q6G, the abundance fitness was -0.299 ± 0.21.

For Q6D, the abundance fitness is -0.294 ± 0.28.

As to E2Y, the abundance fitness was determined as 0.327 ± 0.12.

For the variant E2I, the abundance fitness is 0.419 ± 0.1.

As to E2Q, the abundance fitness is 0.231 ± 0.17.

Take E2T: the abundance fitness was 0.34 ± 0.097.

For the variant E2V, the abundance fitness is -0.232 ± 0.089.

For E2M, the abundance fitness came to 0.549 ± 0.18.

For E2K, the abundance fitness is 0.294 ± 0.15.

As to E2W, the abundance fitness was -0.006 ± 0.27.

In the case of E2D, the abundance fitness is 0.327 ± 0.12.

For the variant E2L, the abundance fitness came out at 0.282 ± 0.09.

For the variant E2P, the abundance fitness is -0.095 ± 0.11.

E2N: the abundance fitness was found to be 0.526 ± 0.11.

Consider E2R, for which the abundance fitness is -0.086 ± 0.12.

As to E2F, the abundance fitness turned out to be 0.285 ± 0.13.

Turning to E2C, the abundance fitness turned out to be 0.138 ± 0.15.

As for E2G, the abundance fitness is -0.011 ± 0.13.

E2A: the abundance fitness is -0.263 ± 0.1.

Regarding E2H, the abundance fitness was determined as 0.126 ± 0.099.

As to E2S, the abundance fitness was 0.125 ± 0.098.

On to T3K, for which the abundance fitness came out at 0.363 ± 0.12.

For T3A, the abundance fitness was -0.179 ± 0.1.

For T3V, the abundance fitness is -0.055 ± 0.093.

On to T3P, for which the abundance fitness was -0.09 ± 0.12.

Turning to T3D, the abundance fitness was -0.163 ± 0.15.

For the variant T3C, the abundance fitness is -0.048 ± 0.12.

T3M: the abundance fitness turned out to be 0.377 ± 0.11.

In the case of T3G, the abundance fitness was 0.136 ± 0.1.

In the case of T3Q, the abundance fitness is -0.069 ± 0.15.

On to T3I, for which the abundance fitness was -0.035 ± 0.14.

Turning to T3Y, the abundance fitness is 0.113 ± 0.14.

For T3W, the abundance fitness came out at 0.13 ± 0.13.

Take T3H: the abundance fitness is -0.481 ± 0.22.

Turning to T3E, the abundance fitness amounted to 0.314 ± 0.14.

Consider T3F, for which the abundance fitness came out at 0.236 ± 0.14.

With T3R, the abundance fitness is 0.206 ± 0.082.

As for Y1I, the abundance fitness was found to be 0.557 ± 0.34.

With Y1E, the abundance fitness worked out at 0.154 ± 0.33.

Consider Y1W, for which the abundance fitness was 0.259 ± 0.21.

For Y1D, the abundance fitness is -0.2 ± 0.19.

On to Y1G, for which the abundance fitness was 0.416 ± 0.21.

Regarding Y1N, the abundance fitness was -0.287 ± 0.25.

Consider Y1K, for which the abundance fitness came out at 0.352 ± 0.46.

Consider Y1S, for which the abundance fitness was -0.264 ± 0.34.

Turning to Y1C, the abundance fitness turned out to be 0.258 ± 0.21.

As for Y1L, the abundance fitness was determined as 0.172 ± 0.27.

As for Y1V, the abundance fitness is 0.156 ± 0.2.

For D7G, the abundance fitness is -0.055 ± 0.14.

For the variant D7V, the abundance fitness was -0.083 ± 0.15.

In the case of D7K, the abundance fitness is -0.044 ± 0.15.

Take D7Q: the abundance fitness is -0.146 ± 0.26.

On to D7A, for which the abundance fitness worked out at 0.043 ± 0.17.

Consider D7L, for which the abundance fitness was -0.727 ± 0.22.

As to D7N, the abundance fitness amounted to 0.044 ± 0.1.

In the case of D7E, the abundance fitness was -0.263 ± 0.25.

Consider D7W, for which the abundance fitness is -0.767 ± 0.33.

Take D7F: the abundance fitness is -0.37 ± 0.22.

On to D7P, for which the abundance fitness came to 0.134 ± 0.26.

Consider D7T, for which the abundance fitness is -0.036 ± 0.19.

For the variant D7S, the abundance fitness is -0.154 ± 0.11.

For the variant D7Y, the abundance fitness was -0.522 ± 0.23.

Consider D7M, for which the abundance fitness was -0.105 ± 0.29.

Regarding D7R, the abundance fitness was -0.289 ± 0.13.

Regarding D7H, the abundance fitness was -0.012 ± 0.24.

As for Y8V, the abundance fitness was determined as 0.053 ± 0.1.

Regarding Y8L, the abundance fitness amounted to 0.215 ± 0.095.

As for Y8T, the abundance fitness is -0.118 ± 0.1.

As for Y8R, the abundance fitness worked out at 0.25 ± 0.079.

As for Y8A, the abundance fitness came out at 0.207 ± 0.11.

As to Y8C, the abundance fitness was -0.211 ± 0.18.

Turning to Y8N, the abundance fitness turned out to be 0.061 ± 0.16.

Regarding Y8F, the abundance fitness was 0.083 ± 0.23.

With Y8E, the abundance fitness was determined as 0.098 ± 0.12.

Turning to Y8K, the abundance fitness stood at 0.141 ± 0.12.

On to Y8H, for which the abundance fitness amounted to 0.461 ± 0.13.

With Y8Q, the abundance fitness was 0.499 ± 0.12.

Take Y8G: the abundance fitness was determined as 0.165 ± 0.094.

Y8S: the abundance fitness was -0.026 ± 0.092.

In the case of Y8I, the abundance fitness is 0.21 ± 0.21.

As for Y8P, the abundance fitness came to 0.302 ± 0.11.

Turning to D4Y, the abundance fitness was -0.126 ± 0.24.

For the variant D4M, the abundance fitness came to 0.438 ± 0.11.

As to D4C, the abundance fitness is -0.066 ± 0.18.

For the variant D4H, the abundance fitness is -0.136 ± 0.22.

As to D4W, the abundance fitness was -0.088 ± 0.13.

In the case of D4Q, the abundance fitness worked out at 0.075 ± 0.13.

Turning to D4G, the abundance fitness is -0.001 ± 0.091.

As for D4K, the abundance fitness is -0.041 ± 0.15.

As for D4T, the abundance fitness stood at 0.079 ± 0.12.

D4R: the abundance fitness is -0.203 ± 0.11.

Turning to D4F, the abundance fitness was -0.055 ± 0.12.

For the variant D4V, the abundance fitness came out at 0.166 ± 0.08.

With D4A, the abundance fitness was found to be 0.133 ± 0.085.

For the variant D4I, the abundance fitness is -0.156 ± 0.15.

As to D4N, the abundance fitness was -0.406 ± 0.15.

As for D4L, the abundance fitness turned out to be 0.077 ± 0.086.

In the next data set the parent is B2. The description is as above. Conditions: Homo sapiens.
As for T4P, the abundance fitness was -0.178 ± 0.15.

As for T4G, the abundance fitness is -0.189 ± 0.12.

As for V45R, the abundance fitness is -0.062 ± 0.13.

With S35V, the abundance fitness was -0.456 ± 0.13.

With S35M, the abundance fitness was 0.127 ± 0.17.

Turning to L38T, the abundance fitness was -0.607 ± 0.21.

For L38I, the abundance fitness came to 0.048 ± 0.26.

As for E54S, the abundance fitness is -0.679 ± 0.18.

In the case of K2A, the abundance fitness is -0.433 ± 0.21.

Take N49M: the abundance fitness is -0.304 ± 0.22.

Regarding N49E, the abundance fitness was found to be 0.117 ± 0.2.

As to N49W, the abundance fitness was -0.885 ± 0.21.

On to F47C, for which the abundance fitness was -0.792 ± 0.31.

Regarding F47P, the abundance fitness is -0.996 ± 0.27.

Turning to A26G, the abundance fitness was -0.37 ± 0.12.

F18I: the abundance fitness was -0.851 ± 0.26.

Regarding W46S, the abundance fitness is -0.693 ± 0.21.

With R56A, the abundance fitness is -0.085 ± 0.29.

Turning to R56N, the abundance fitness was found to be 0.38 ± 0.48.

Take A33G: the abundance fitness was -0.853 ± 0.2.

For E28Q, the abundance fitness is -0.432 ± 0.19.

For L32T, the abundance fitness was -0.939 ± 0.46.

On to L32V, for which the abundance fitness is -0.625 ± 0.2.

In the case of L32H, the abundance fitness was -0.86 ± 0.35.

Regarding E15R, the abundance fitness was -0.985 ± 0.18.

With E15N, the abundance fitness was -0.885 ± 0.26.

For the variant S30K, the abundance fitness was -0.003 ± 0.18.

On to S30C, for which the abundance fitness was -0.396 ± 0.27.

In the case of L14C, the abundance fitness is -0.563 ± 0.15.

For the variant R44T, the abundance fitness was -0.343 ± 0.16.

Take R44C: the abundance fitness is -0.801 ± 0.38.

Turning to C48R, the abundance fitness came out at 0.056 ± 0.12.

As to C48G, the abundance fitness was -0.526 ± 0.14.

R3N: the abundance fitness amounted to 0.033 ± 0.24.

For the variant R3G, the abundance fitness turned out to be 0.077 ± 0.1.

For the variant P22M, the abundance fitness is -0.553 ± 0.21.

Regarding E39P, the abundance fitness was -0.022 ± 0.17.

Turning to E39D, the abundance fitness worked out at 0.122 ± 0.17.

Consider H17S, for which the abundance fitness was -0.262 ± 0.16.

Consider T16N, for which the abundance fitness is -0.223 ± 0.29.

As for T16L, the abundance fitness is -0.304 ± 0.14.

T16Q: the abundance fitness came out at 0.044 ± 0.2.

With S9M, the abundance fitness is -0.392 ± 0.25.

Q52N: the abundance fitness was determined as 0.273 ± 0.27.

Consider L19G, for which the abundance fitness was -0.504 ± 0.12.
